Assay results: US20240066131A1 (Protagonist Therapeutics, Inc., priority 2020, published 2024)
Blank lines part the entries; values can stand above or below the binder they belong to. Starred links: 1 amine or outer side, 2 acyl side, 3 side chain; linkers in the order of their positions; H or OH if unused. Positions of bridges follow the written chain, without caps; N, C: chain ends. Non-standard residues stand in square brackets, D forms with d. Groups on a side chain read outwards from the residue. *: point of attachment. ButanoicP = (R)-4-(pyrrolidin-2-yl)butanoic acid, O=C(CCC[C@@H]1CCCN1[*:1])[*:2]; Ala(1H-tetrazol-5-yl) = N[C@@H](Cc1nnn[nH]1)C(=O)O; Dip = N[C@H](C(=O)O)C(c1ccccc1)c1ccccc1; His(τ-Me) = Cn1cnc(C[C@H](N)C(=O)O)c1; Palmitoyl = CCCCCCCCCCCCCCCC(=O)*; β3hF = N[C@H](CC(=O)O)Cc1ccccc1; NMeK = CN[C@@H](CCCCN)C(=O)O; Isovaleryl = CC(C)CC(=O)*; IDA = iminodiacetic acid; Ahx = NCCCCCC(=O)O

Molecular target: T1, human ferroportin (SLC40A1) fused in frame with GFP, stably expressed in HEK293 cells (human, UniProt Q9NP59 1-571)
T1 sequence (looked up): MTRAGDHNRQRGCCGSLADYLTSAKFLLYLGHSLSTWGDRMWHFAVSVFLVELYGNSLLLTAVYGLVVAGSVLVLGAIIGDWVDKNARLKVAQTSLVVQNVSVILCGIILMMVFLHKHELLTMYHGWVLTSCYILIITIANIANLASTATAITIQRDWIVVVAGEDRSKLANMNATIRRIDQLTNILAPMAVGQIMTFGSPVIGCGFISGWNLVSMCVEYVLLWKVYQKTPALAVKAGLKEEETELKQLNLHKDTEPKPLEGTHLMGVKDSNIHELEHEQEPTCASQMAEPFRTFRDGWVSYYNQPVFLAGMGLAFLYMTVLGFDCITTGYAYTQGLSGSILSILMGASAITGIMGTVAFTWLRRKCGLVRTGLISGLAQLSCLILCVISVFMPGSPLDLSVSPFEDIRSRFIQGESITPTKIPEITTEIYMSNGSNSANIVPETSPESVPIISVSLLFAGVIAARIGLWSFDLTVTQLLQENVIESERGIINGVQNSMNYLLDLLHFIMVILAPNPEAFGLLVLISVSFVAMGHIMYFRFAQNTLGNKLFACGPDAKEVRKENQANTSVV
Assay: cell-based or functional assay

- FPN EC50: > 3000 nM
Binder: Succinic_Acid-ETH[Dip]PIIK(Ac)[β3hF]-NH2 [[Succinic_Acid]-E-T-H-[Dpa]-P-I-I-[Lys(Ac)]-[bhPhe]-NH2]

- FPN EC50: > 3000 nM
B1: Isovaleric Acid-A-T-H-E-P-K-I-[Lys(Ahx_Palm)]-[bhPhe]-R-NH2; (E and K cyclized) (peptide)
peptide: Isovaleryl-ATHEPKIK([Ahx-Palmitoyl])[β3hF]R-NH2
modifications: lactam 4-6
SMILES: CCCCCCCCCCCCCCCC(=O)NCCCCCC(=O)NCCCC[C@H](NC(=O)[C@@H](NC(=O)[C@@H]1CCCCNC(=O)CC[C@H](NC(=O)[C@H](Cc2c[nH]cn2)NC(=O)[C@@H](NC(=O)[C@H](C)NC(=O)CC(C)C)[C@@H](C)O)C(=O)N2CCC[C@H]2C(=O)N1)[C@@H](C)CC)C(=O)N[C@H](CC(=O)N[C@@H](CCCNC(=N)N)C(N)=O)Cc1ccccc1

- FPN EC50: 202 nM
Binder: Isovaleryl-[N‑(CH2CH2CH2CO2H)Gly]TH[Dip]PAIK([Ahx-Palmitoyl])[β3hF]-NH2 [Isovaleric Acid-[N-(CH2CH2CH2CO2H)Gly]-T-H-[Dpa]-P-A-I-[Lys(Ahx_Palm)]-[bhPhe]-NH2]

- FPN EC50: 63.1 nM
B6: Isovaleric Acid-[Tet1]-T-[(1Me)His]-[Dpa]-P-A-I-[Lys(Ahx_Palm)]-[bhPhe]-NH2 (peptide)
peptide: Isovaleryl-[Ala(1H-tetrazol-5-yl)]T[His(τ-Me)][Dip]PAIK([Ahx-Palmitoyl])[β3hF]-NH2
SMILES: CCCCCCCCCCCCCCCC(=O)NCCCCCC(=O)NCCCC[C@H](NC(=O)[C@@H](NC(=O)[C@H](C)NC(=O)[C@@H]1CCCN1C(=O)[C@@H](NC(=O)[C@H](Cc1cn(C)cn1)NC(=O)[C@@H](NC(=O)[C@H](Cc1nnn[nH]1)NC(=O)CC(C)C)[C@@H](C)O)C(c1ccccc1)c1ccccc1)[C@@H](C)CC)C(=O)N[C@H](CC(N)=O)Cc1ccccc1

- FPN EC50: 241 nM
B7: Isovaleric Acid-[Tet1]-T-[(1-Me)His]-[Dpa]-P-A-I-[bhPhe]-[(D)Lys]-A-NH2 (peptide)
peptide: Isovaleryl-[Ala(1H-tetrazol-5-yl)]T[His(τ-Me)][Dip]PAI[β3hF][dK]A-NH2
SMILES: CC[C@H](C)[C@H](NC(=O)[C@H](C)NC(=O)[C@@H]1CCCN1C(=O)[C@@H](NC(=O)[C@H](Cc1cn(C)cn1)NC(=O)[C@@H](NC(=O)[C@H](Cc1nnn[nH]1)NC(=O)CC(C)C)[C@@H](C)O)C(c1ccccc1)c1ccccc1)C(=O)N[C@H](CC(=O)N[C@H](CCCCN)C(=O)N[C@@H](C)C(N)=O)Cc1ccccc1

- FPN EC50: > 5000 nM
Binder: Pimelic_Acid-ETH[Dip]PIIK(Ac)[β3hF]-NH2 [[Pimelic_Acid]-E-T-H-[Dpa]-P-I-I-[Lys(Ac)]-[bhPhe]-NH2]

- FPN EC50: 378 nM
B9: Isovaleric Acid-[Tet1]-T-[(1-Me)His]-[Dpa]-P-A-I-[bhPhe]-[(D)Lys]-NH2 (peptide)
peptide: Isovaleryl-[Ala(1H-tetrazol-5-yl)]T[His(τ-Me)][Dip]PAI[β3hF][dK]-NH2
SMILES: CC[C@H](C)[C@H](NC(=O)[C@H](C)NC(=O)[C@@H]1CCCN1C(=O)[C@@H](NC(=O)[C@H](Cc1cn(C)cn1)NC(=O)[C@@H](NC(=O)[C@H](Cc1nnn[nH]1)NC(=O)CC(C)C)[C@@H](C)O)C(c1ccccc1)c1ccccc1)C(=O)N[C@H](CC(=O)N[C@H](CCCCN)C(N)=O)Cc1ccccc1

- FPN EC50: > 3000 nM
B11: Isovaleric Acid-A-T-H-K-P-E-I-[Lys(Ahx_Palm)]-[bhPhe]-R-NH2; (K and E cyclized) (peptide)
peptide: Isovaleryl-ATHKPEIK([Ahx-Palmitoyl])[β3hF]R-NH2
modifications: lactam 4-6
SMILES: CCCCCCCCCCCCCCCC(=O)NCCCCCC(=O)NCCCC[C@H](NC(=O)[C@@H](NC(=O)[C@@H]1CCC(=O)NCCCC[C@H](NC(=O)[C@H](Cc2c[nH]cn2)NC(=O)[C@@H](NC(=O)[C@H](C)NC(=O)CC(C)C)[C@@H](C)O)C(=O)N2CCC[C@H]2C(=O)N1)[C@@H](C)CC)C(=O)N[C@H](CC(=O)N[C@@H](CCCNC(=N)N)C(N)=O)Cc1ccccc1

- FPN EC50: 2230 nM
Binder: Isovaleryl-E[N‑(CH2CH2OH)Gly]H[Dip]PAIK([Ahx-Palmitoyl])[β3hF]-NH2 [Isovaleric Acid-E-[N-(CH2CH2OH)Gly]-H-[Dpa]-P-A-I-[Lys(Ahx_Palm)]-[bhPhe]-NH2]

Further lines, the binder ahead of its results:

Binder: Isovaleryl-ETH[Dip]PKIK([Ahx-Palmitoyl])[β3hF][dK]-NH2 (lactam 1-6 (inferred)) [Isovaleric Acid-E-T-H-[Dpa]-P-K-I-[Lys(Ahx_Palm)]-[bhPhe]-[(D)Lys]-NH2; (E and K cyclized)]
- FPN EC50: 122 nM

Binder: Isovaleryl-ETH[Dip][ButanoicP]K([Ahx-Palmitoyl])[β3hF]-NH2 [Isovaleric Acid-E-T-H-[Dpa]-[ButanoicP]-[Lys(Ahx_Palm)]-[bhPhe]-NH2]
- FPN EC50: 20.5 nM

Binder: Glutaric_Acid-ETH[Dip]PIIK(Ac)[β3hF]-NH2 [[Glutaric_Acid]-E-T-H-[Dpa]-P-I-I-[Lys(Ac)]-[bhPhe]-NH2]
- FPN EC50: > 3000 nM

B2: Isovaleric Acid-A-T-H-[Dpa]-P-E-I-[(D)Lys]-[bhPhe]-[Lys(Ahx_Palm)]-R-NH2; (E and (D)Lys cyclized) (peptide)
peptide: Isovaleryl-ATH[Dip]PEI[dK][β3hF]K([Ahx-Palmitoyl])R-NH2
modifications: lactam 6-8
SMILES: CCCCCCCCCCCCCCCC(=O)NCCCCCC(=O)NCCCC[C@H](NC(=O)C[C@H](Cc1ccccc1)NC(=O)[C@H]1CCCCNC(=O)CC[C@H](NC(=O)[C@@H]2CCCN2C(=O)[C@@H](NC(=O)[C@H](Cc2c[nH]cn2)NC(=O)[C@@H](NC(=O)[C@H](C)NC(=O)CC(C)C)[C@@H](C)O)C(c2ccccc2)c2ccccc2)C(=O)N[C@@H]([C@@H](C)CC)C(=O)N1)C(=O)N[C@@H](CCCNC(=N)N)C(N)=O
- FPN EC50: 61.2 nM

Binder: Isovaleryl-LT[His(τ-Me)][Dip]PAI[NMeK][β3hF]K([Ahx-Palmitoyl])-NH2 [Isovaleric Acid-L-T-[(1Me)His]-[Dpa]-P-A-I-[(N-Me)Lys)]-[bhPhe]-[Lys(Ahx_Palm)]-NH2]
- FPN EC50: 95.9 nM

B3: Isovaleric Acid-L-T-[(1Me)His]-[Dpa]-P-A-I-[Lys(Ahx_Palm)]-[bhPhe]-NH2 (peptide)
peptide: Isovaleryl-LT[His(τ-Me)][Dip]PAIK([Ahx-Palmitoyl])[β3hF]-NH2
SMILES: CCCCCCCCCCCCCCCC(=O)NCCCCCC(=O)NCCCC[C@H](NC(=O)[C@@H](NC(=O)[C@H](C)NC(=O)[C@@H]1CCCN1C(=O)[C@@H](NC(=O)[C@H](Cc1cn(C)cn1)NC(=O)[C@@H](NC(=O)[C@H](CC(C)C)NC(=O)CC(C)C)[C@@H](C)O)C(c1ccccc1)c1ccccc1)[C@@H](C)CC)C(=O)N[C@H](CC(N)=O)Cc1ccccc1
- FPN EC50: > 3000 nM

Binder: Gallic_Acid-ETH[Dip]PIIK(Ac)[β3hF]-NH2 [[Gallic_Acid]-E-T-H-[Dpa]-P-I-I-[Lys(Ac)]-[bhPhe]-NH2]
- FPN EC50: > 3000 nM

B4: Isovaleric Acid-A-T-H-[Dpa]-P-K-I-E-[bhPhe]-[Lys(Ahx_Palm)]-R-NH2; (K and E cyclized) (peptide)
peptide: Isovaleryl-ATH[Dip]PKIE[β3hF]K([Ahx-Palmitoyl])R-NH2
modifications: lactam 6-8
SMILES: CCCCCCCCCCCCCCCC(=O)NCCCCCC(=O)NCCCC[C@H](NC(=O)C[C@H](Cc1ccccc1)NC(=O)[C@@H]1CCC(=O)NCCCC[C@H](NC(=O)[C@@H]2CCCN2C(=O)[C@@H](NC(=O)[C@H](Cc2c[nH]cn2)NC(=O)[C@@H](NC(=O)[C@H](C)NC(=O)CC(C)C)[C@@H](C)O)C(c2ccccc2)c2ccccc2)C(=O)N[C@@H]([C@@H](C)CC)C(=O)N1)C(=O)N[C@@H](CCCNC(=N)N)C(N)=O
- FPN EC50: 90.7 nM

B5: Isovaleric Acid-E-T-H-[Dpa]-P-A-I-[(D)Lys]-[bhPhe]-[Lys(Ahx_Palm)]-[(D)Lys]-NH2 (peptide)
peptide: Isovaleryl-ETH[Dip]PAI[dK][β3hF]K([Ahx-Palmitoyl])[dK]-NH2
SMILES: CCCCCCCCCCCCCCCC(=O)NCCCCCC(=O)NCCCC[C@H](NC(=O)C[C@H](Cc1ccccc1)NC(=O)[C@@H](CCCCN)NC(=O)[C@@H](NC(=O)[C@H](C)NC(=O)[C@@H]1CCCN1C(=O)[C@@H](NC(=O)[C@H](Cc1c[nH]cn1)NC(=O)[C@@H](NC(=O)[C@H](CCC(=O)O)NC(=O)CC(C)C)[C@@H](C)O)C(c1ccccc1)c1ccccc1)[C@@H](C)CC)C(=O)N[C@H](CCCCN)C(N)=O
- FPN EC50: 45.5 nM

Binder: {(3-Trifluoromethyl)butyric acid}-ETH[Dip]PIIK(Ac)[β3hF]-NH2 [[(3-Trifluoromethyl)butyric acid]-E-T-H-[Dpa]-P-I-I-[Lys(Ac)]-[bhPhe]-NH2]
- FPN EC50: 2080 nM

B8: Isovaleric Acid-L-T-H-[Dpa]-P-A-I-[(N-Me)Lys]-[bhPhe]-[Lys(Ahx_Palm)]-NH2 (peptide)
peptide: Isovaleryl-LTH[Dip]PAI[NMeK][β3hF]K([Ahx-Palmitoyl])-NH2
SMILES: CCCCCCCCCCCCCCCC(=O)NCCCCCC(=O)NCCCC[C@H](NC(=O)C[C@H](Cc1ccccc1)NC(=O)[C@H](CCCCN)N(C)C(=O)[C@@H](NC(=O)[C@H](C)NC(=O)[C@@H]1CCCN1C(=O)[C@@H](NC(=O)[C@H](Cc1c[nH]cn1)NC(=O)[C@@H](NC(=O)[C@H](CC(C)C)NC(=O)CC(C)C)[C@@H](C)O)C(c1ccccc1)c1ccccc1)[C@@H](C)CC)C(N)=O
- FPN EC50: 103 nM

B10: Isovaleric Acid-K-T-H-[Dpa]-P-A-I-[Lys(Ahx_Palm)]-[bhPhe]-E-NH2; (K and E cyclized) (peptide)
peptide: Isovaleryl-KTH[Dip]PAIK([Ahx-Palmitoyl])[β3hF]E-NH2
modifications: lactam 1-10
SMILES: CCCCCCCCCCCCCCCC(=O)NCCCCCC(=O)NCCCC[C@@H]1NC(=O)[C@H]([C@@H](C)CC)NC(=O)[C@H](C)NC(=O)[C@@H]2CCCN2C(=O)[C@H](C(c2ccccc2)c2ccccc2)NC(=O)[C@H](Cc2c[nH]cn2)NC(=O)[C@H]([C@@H](C)O)NC(=O)[C@@H](NC(=O)CC(C)C)CCCCNC(=O)CC[C@@H](C(N)=O)NC(=O)C[C@H](Cc2ccccc2)NC1=O
- FPN EC50: 184 nM

Binder: Isovaleryl-[dE]TH[Dip]PIIK(Ac)[β3hF]-NH2 [Isovaleric Acid-[(D)Glu]-T-H-[Dpa]-P-I-I-[Lys(Ac)]-[bhPhe]-NH2]
- FPN EC50: 1450 nM

Binder: {Isophthalic Acid}-ETH[Dip]PIIK(Ac)[β3hF]-NH2 [[Isophthalic Acid]-E-T-H-[Dpa]-P-I-I-[Lys(Ac)]-[bhPhe]-NH2]
- FPN EC50: > 5000 nM

Binder: {3,3,3‑Trifluoro propionic acid}-ETH[Dip]PIIK(Ac)[β3hF]-NH2 [[3,3,3-Trifluoro propionic acid]-E-T-H-[Dpa]-P-I-I-[Lys(Ac)]-[bhPhe]-NH2]
- FPN EC50: 5740 nM

Binder: {IDA}-ETH[Dip]PIIK(Ac)[β3hF]-NH2 [[IDA]-E-T-H-[Dpa]-P-I-I-[Lys(Ac)]-[bhPhe]-NH2]
- FPN EC50: > 5000 nM
